Reference: US20240336683A1 (published 2024)

T1: human Siglec 15-HIS tagged recombinant protein (human, UniProt Q6ZMC9 20-263)
T1 construct: Recombinant soluble protein; also called rhSiglec15 His; human Siglec15-HIS tagged protein; not shown: HIS tag
T1 sequence (looked up): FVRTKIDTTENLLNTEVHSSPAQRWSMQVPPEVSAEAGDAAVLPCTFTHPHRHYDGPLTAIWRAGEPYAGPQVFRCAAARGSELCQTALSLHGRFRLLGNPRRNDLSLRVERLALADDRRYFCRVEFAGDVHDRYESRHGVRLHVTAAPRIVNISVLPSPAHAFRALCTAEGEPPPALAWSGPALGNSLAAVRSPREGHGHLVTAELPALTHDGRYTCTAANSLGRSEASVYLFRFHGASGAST

T2: rcynoSiglec15 His (cyno, UniProt A0A2K5UY47 20-262)
T2 construct: not shown: His tag
T2 sequence: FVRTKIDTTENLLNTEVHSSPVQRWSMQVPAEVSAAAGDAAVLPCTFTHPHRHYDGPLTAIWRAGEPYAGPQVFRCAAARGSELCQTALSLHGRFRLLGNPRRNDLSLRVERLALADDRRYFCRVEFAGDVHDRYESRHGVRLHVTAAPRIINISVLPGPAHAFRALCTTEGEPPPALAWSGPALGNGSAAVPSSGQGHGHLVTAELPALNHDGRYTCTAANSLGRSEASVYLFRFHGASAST

T3: rmouseSiglec15 His (mouse, UniProt A7E1W8 20-262)
T3 sequence: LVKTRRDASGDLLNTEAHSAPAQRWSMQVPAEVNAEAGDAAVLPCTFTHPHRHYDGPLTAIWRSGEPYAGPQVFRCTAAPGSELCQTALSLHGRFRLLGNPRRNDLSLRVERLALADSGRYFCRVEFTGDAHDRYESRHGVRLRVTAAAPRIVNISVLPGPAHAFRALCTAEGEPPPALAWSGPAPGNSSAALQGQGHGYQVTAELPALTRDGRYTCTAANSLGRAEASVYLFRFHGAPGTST

T4: full-length human Siglec15 with C-terminal flag and Myc tags on HEK293 cells (human, UniProt Q6ZMC9 20-328)
T4 construct: whole, on cells; also called Siglec15/HEK293; HEK293-Siglec 15; not shown: C-terminal flag and Myc tags from pCMV6-Entry vector
T4 sequence (looked up): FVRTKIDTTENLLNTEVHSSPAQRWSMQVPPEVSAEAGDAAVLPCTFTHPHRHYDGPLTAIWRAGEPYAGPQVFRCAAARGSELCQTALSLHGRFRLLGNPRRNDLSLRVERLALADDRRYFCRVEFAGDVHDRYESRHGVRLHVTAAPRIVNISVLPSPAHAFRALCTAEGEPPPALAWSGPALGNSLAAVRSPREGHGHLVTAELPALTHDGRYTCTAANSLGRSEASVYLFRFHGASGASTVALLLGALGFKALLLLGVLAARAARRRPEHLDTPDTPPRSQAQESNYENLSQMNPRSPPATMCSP


Tests used:
[1] = molecular target: T1, human Siglec 15-HIS tagged recombinant …; experiment: SPR Biacore T200; IgG captured on Protein A chip, Siglec15-HIS as analyte
Description: Kinetic analysis of anti-Siglec15 IgG was assessed by SPR technology with Biacore T200. The assay was run with Biacore T200 control software version 2.0. For each cycle, 1 ug/mL of anti-Siglec15 IgG was captured for 60 seconds at flow rate of 10 ul/min on flow cell 2 in 1× HBSP buffer on Protein A sensor chip. 2-fold serial human Siglec15-HIS tagged protein was injected onto both reference flow cell 1 and anti-Siglec15 IgG captured flow cell 2 for 150 seconds at flow rate of 30 ul/mins followed by wash for 300 seconds. The flow cells were then regenerated with Glycine pH2 for 60 seconds at flow rate of 30 ul/mins. 8 concentration points from 100-0 nM were assayed per anti-Siglec15 IgG in a 96 well plate. The kinetics of Anti-Siglec15 IgG binding to Siglec 15 protein was analyzed with Biacore T200 evaluation software version 3.0. The specific binding response unit was derived from subtraction of binding to reference flow cell 1 from antibody captured flow cell 2.

[2] = molecular target: T1, human Siglec 15-HIS tagged recombinant …; experiment: ELISA; His-tagged Siglec15 coated, IgG titrated, anti-hFc HRP
Description: (§1) An ELISA assay was developed to determine the EC50 of anti-Siglec15 IgG antibodies. Briefly, a 384 well plate was immobilized with human Siglec 15-HIS tagged recombinant protein at a final concentration of 2 ug/mL in 1×PBS in total volume of 25 uL per well. The plate was incubated overnight at 4° C. followed by blocking with 80 uL of superblock per well for 1 hour. Titration of purified anti-Siglec15 IgG was performed, starting at 200 nM 2-fold serial dilution, then 25 uL was added to the human Siglec15 immobilized wells and incubated for 1 hour with shaking. The Siglec15 binding was detected by adding 25 uL of anti-hFc HRP diluted at 1:5000 in 1×PBST. In between each step, the plate was washed 3 times with 1×PBST in a plate washer. The plate was then developed with 20 ul of TMB substrate for 5 mins and stopped by adding 20 ul of 2N sulfuric acid. The plate was read at OD450 nm Biotek plate reader and then plotted in Prism 8.1 software. Similar binding experiments were done for mouse Siglec15 and cyno Siglec15 to check the cross activity of the IgG antibodies to those two species.

rcynoSiglec15 His = molecular target: T2, rcynoSiglec15 His; experiment: as above
Description: as §1

rmouseSiglec15 His = molecular target: T3, rmouseSiglec15 His; experiment: as above
Description: as §1

[3] = molecular target: T4, full-length human Siglec15 with …; experiment: FACS on Siglec15/HEK293 cells, IgG, anti-hFc Alexa fluor 647

Binder | Kd [1] [nM] | koff [1] [s⁻¹] | EC50 [2] [nM] | EC50 (rcynoSiglec15 His) [nM] | EC50 (rmouseSiglec15 His) [nM] | EC50 [3] [nM]
2019EP47-A10 IgG (antibody, V domains shown, IgG form expressed in ExpiHEK293-F cells; detected with anti-hFc) VH: QMQLVQSGGGVVQPGRSLRLSCAASGFTFSSYGMHWVRQAPGKGLEWVAVISYDGSNKYYADSVKDRFTISRDNSKNTLYLQMNSLRAEDTAVYYCAKDIVGDSGSYPIYYYYGMDVWGQGTTVTVSS VL: SQSALTQPHSVSESPGKTVTISCTRSSGSIASNYVQWYQQRPGSAPSTVIYEDNQRPSGVPDRFSGSVDISSNSASLTISGLQTEDEADYYCQSYDNDNMVFGGGTKLTVL | 3.8 | 0.000368 | 0.119 | 0.171 | 0.109 | 
2020EP032-H11 IgG (antibody, V domains shown, IgG form expressed in ExpiHEK293-F cells; detected with anti-hFc; also called 2020EP32-H11; H11 mAb) VH: EVQLVESGGGLVKPGGSLRLSCAASGFTFSSYSMNWVRQAPGKGLEWVSSISSSSSYIYYADSVKGRFTISRDNAKNSLYLQMNSLRAEDTAVYYCARDYRGYSGQNYYGMDVWGQGTTVTVSS VL: QSALTQPPSVSAAPRQKVTISCSGSSSNIGNNDVSWYQQLPGTVPKLLIYDNNKRPSGIPDRFSGSKSGTSASLGITGLQTGDEADYYCGVWDSSLSGYVFGTGTKVTVL |  |  | 0.0228 | 0.0258 | 0.0105 | 0.022

Second part, the binder after the results:

Kd [1] [nM] | koff [1] [s⁻¹] | EC50 [2] [nM] | EC50 (rcynoSiglec15 His) [nM] | EC50 (rmouseSiglec15 His) [nM] | EC50 [3] [nM] | Binder
 |  | 0.527 | 1.21 | 0.248 | 1.92 | 2020EP032-B03 IgG (antibody, V domains shown, IgG form expressed in ExpiHEK293-F cells; detected with anti-hFc; also called 2020EP32-B03) VH: QVQLQQWGAGLLKPSETLSLTCAVYGGSFSGYYWSWIRQPPGKGLEWIGEINHSGSTNYNPSLKSRVTISVDTSKNQFSLKLSSVTAADTAVYYCARGPLRKYYDFWSGSRNYYYYGMDVWGQGTTVTVSS VL: QPVLTQDPAVSVALGQTVRITCQGDSLRSNYASWYQLKPGQAPVLVIYDKNNRPSGIPDRFSGSNSGNTASLTIAGAQAEDEADYYCTSRDSSGTVFGGGTKLTVL
2.4 | 0.000311 | 0.0289 |  |  | 0.35 | 2019EP47-A02 IgG (antibody, V domains shown, IgG form expressed in ExpiHEK293-F cells; detected with anti-hFc) VH: EVQLVQSGGGVVQPGRSLRLSCAASGFTFSSYAMHWVRQAPGKGLEWVAVISYDGSNKYYADSVKGRFTISRDNSKNTLYLQMNSLRAEDTAVYYCARSRYSSSLRRYYGMDVWGQGTTVTVSS VL: AIQLTQSPSSLSASVGDRVTITCQATHDIANYLNWYQQKPGKAPKLLIYAASNLETGVPSRFSGSGSGTDFTFAISSLQPEDIAVYYCQQYDNLPLTFGGGTKVEIK
